Results as given in the supplement of paper PMC12764529.
± gives the half width of the 95% confidence interval.

How the values were obtained:
[1] = folding stability dG unfold from chymotrypsin proteolysis; higher = more stable
Procedure: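 Folding stability of de novo designed mini-proteins (<80 aa, no Cys; designed by TrROS, TrMRF, ProteinMPNN and the joint model) was measured by cDNA display proteolysis with trypsin and chymotrypsin. Each protease was used at 11 concentrations in a threefold dilution series plus a no-protease condition. K50 was inferred by Bayesian fitting of sequencing counts, and dG unfold was derived against a sequence-predicted unfolded-state K50 (Tsuboyama et al. method). Sequences shown include variable-length N-terminal GS-type padding (SAGGSAGG...) inside a display construct carrying a PA tag. Rows were kept only if the AF2 dimer inter-PAE was >15, to exclude likely homo-oligomers.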

[2] = folding stability dG unfold (combined trypsin and chymotrypsin); higher = more stable
How it was run: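 Unfolding free energy was derived, per protease or combined, by relating Bayesian-fitted K50 values from sequencing counts to a sequence-predicted unfolded-state K50 and a shared folded-state K50. The underlying digests exposed cysteine-free mini-proteins under 80 residues, in a PA-tagged cDNA display construct, to trypsin and chymotrypsin at 11 threefold-diluted concentrations and to a no-protease condition. A filter kept only designs with AlphaFold2 dimer inter-PAE above 15.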

Row | Sequence | folding stability dG unfold [1] | folding stability dG unfold [2]
1 | SAGGSIPAEELAAALAALPELPAAEVEVVVEERPDEVVVDVRFADPEHPRHVALLRRAERLLAEAASAGGSA [r2_3_TrMRF] | 1.56 ± 1.26 kJ/mol | -1.27 ± 0.92 kJ/mol
2 | SPEFKIAEVRVEAFPDGTVKAEVRFEGGTETAVFDAPVDPETGVVPVRARIYNPETGEVSEFTATGRIGASA [r9_825_TrMRF] | 0.275 ± 0.669 kJ/mol | -1.36 ± 0.711 kJ/mol
3 | SAGGNITPNQAKRQAQEIADWLAQEYQQQNPDMKVKVDVEVDPPDGEIKVDGEWPNGRPMAEITIPVKSAGG [r13_247_TrROS] | -0.0444 ± 0.544 kJ/mol | -2.59 ± 1 kJ/mol
4 | SAGGIRLEIPPNWTPEEAKEQAEELANFFAKKGPMEVEDIEYKRDEKDGNPMIVGEIRDPKNGKEWTISAGG [r13_669_TrROS] | -0.53 ± 1.26 kJ/mol | -3.16 ± 2.85 kJ/mol
5 | SAGGSAGGSAGGSFTLTTPGRTETVPAGSEVYFGNGIKLHPDLPLADIPPELLTPIGTRPSAGGSAGGSAGG [r17_511_TrMRF] | 2.01 ± 1.13 kJ/mol | -0.956 ± 1 kJ/mol
6 | SAGGSAGGSAGEPKIKKKYIIPLKLKDPNTDKVYIANIEVDNKEEVPKIVKKLKDKGYLSSAGGSAGGSAGG [r11_668_TrMRF] | 1.47 ± 1.34 kJ/mol | -0.378 ± 1.67 kJ/mol
7 | SAGGGSSVTYDPATGEVTVTLHPVDPHPGRLRSRTLPLPAPGSPEEVRERIRALVEAEPAWSTDLTAASAGG [r13_284_JUSTAS] | 3.73 ± 0.502 kJ/mol | 1.77 ± 0.753 kJ/mol
8 | SAGGSAGGSAGMIQIDQDPNNGNYKVKIRNPDGKPREFNVDSPDELEDAADKNGFPAEPISAGGSAGGSAGG [r11_1049_TrROS] | -0.295 ± 0.586 kJ/mol | -2.14 ± 1.72 kJ/mol
9 | SAGGDYDYEKDPNKYRVKERDKNGKILGEKEVEVKPPPIVIDGLPEEDLQEFQDKFPNIPITINPGAISAGG [r13_235_TrROS] | -1.13 ± 2.09 kJ/mol | < -4.18 kJ/mol
10 | SAGGSAGGSAGGSHPVKITEITEFNPGDNRMRIDIKHPNGGKKEIVVPGMPVEEILNAISAGGSAGGSAGGS [r4_357_TrROS] | 0.415 ± 0.13 kJ/mol | -2.66 ± 0.879 kJ/mol
11 | SAGGSAGGSALRPDEPFLVRVRIVDPRPGEGPPVERELVLPLEAILRLIPPGAGADVELLPSAGGSAGGSAG [r3_223_TrMRF] | -3.12 ± 3.93 kJ/mol | < -4.18 kJ/mol
12 | SAGGSAMTTRATATPQPDGTVTVTVEAPGFSRTFTAPPGDLAASLAAVERELPPGEPRVVTSAAAGSAGGSA [r15_925_JUSTAS] | 1.45 ± 0.247 kJ/mol | -0.974 ± 0.28 kJ/mol
13 | SAGGSAGGSAAVVVNATPDDGFTIYDPATGERLADAEVTKTNGDSLNLPHPDGRAVAVDPRKSAGGSAGGSA [r18_363_JUSTAS] | 0.966 ± 0.351 kJ/mol | -1.56 ± 1.97 kJ/mol
14 | SAGGSAGGSAGGPVVTETPTTSVVYDPAKGTVTYVTPTVVTFPDGTTTTTVASTTVPLPASAGGSAGGSAGG [r11_308_JUSTAS] | 2.22 ± 0.628 kJ/mol | 0.351 ± 0.837 kJ/mol
15 | SAGGSAGGSAGDNGPLVIEVDISPDALADAVKNNKPLNANVRIYRPDGSPGGVFDLLIPASAGGSAGGSAGG [r11_26_TrMRF] | 0.909 ± 0.318 kJ/mol | -0.526 ± 0.502 kJ/mol
16 | SAGGSAGGSAGGMLSPEVGLPEVPVTLTDPTNDKVYTITVPPDTNPAEVAAALGVALLLSAGGSAGGSAGGS [r10_202_JUSTAS] | 2.93 ± 0.962 kJ/mol | -0.993 ± 1.59 kJ/mol
17 | SAGGSAGGSAGRKTLPMRNPNNGHEVTAEIEDENGKPIKIEAPMNSPEMRDMARDFAKKISAGGSAGGSAGG [r11_119_TrROS] | 1.49 ± 0.544 kJ/mol | -0.646 ± 0.753 kJ/mol
18 | SAGGSAGGSAGGTIQWDPANGRIKITNPNGKKKTIPIPPDDPEEFLKELKDNGIDRIEPVSAGGSAGGSAGG [r7_139_TrROS] | 4.03 ± 0.314 kJ/mol | 1.59 ± 1.05 kJ/mol

Row | Sequence | folding stability dG unfold [1] | folding stability dG unfold [2]
19 | SAGGSAGGSKMKKITIEVPTEEERKALEEAIKKGEPEVEITTKNGKKIKIKKIEIKEIKIEKKSAGGSAGGS [r12_334_TrROS_Hall] | 6.6 ± 0.586 kJ/mol | 3.17 ± 1.76 kJ/mol
20 | SDKDEKVIPSTSTSTDPETGTVTTTSTNTTITKGKIISPTTVTTTYPTATTTTTSTTIVDPNGNITTINSSA [r9_1015_JUSTAS] | 4.06 ± 0.176 kJ/mol | 1.25 ± 0.586 kJ/mol
21 | SAGGSAARVVEEIPGVGLLIAKPPTSDEPEIVLSLAELEEARRRSGVPPELAALIAANPDLTLELVSAGGSA [r15_359_JUSTAS] | -1.24 ± 1.8 kJ/mol | < -4.18 kJ/mol
22 | SAGGKITIEKKEDGTYTITINGKKFTFKFKPGAKVEIKIEKKKDGTYTITITVTNKDGSKKTFKIKLSAGGS [r16_231_TrROS_Hall] | 20.3 ± 1.09 kJ/mol | 20.4 ± 1.97 kJ/mol
23 | SDLQWEFPVKKPKDQAEQAVEKAKKEFPGFKEVDDIDVERNPDNYRIKMRIRDDKMPPEVADKLRKALQDSA [r9_195_TrROS] | -1.9 ± 1.92 kJ/mol | < -4.18 kJ/mol
24 | SAGGSAGGSAGGGSMTKIGNGYLRYTLPGDTVVIYDPSTGTTQTLPVSNPVPVELPPNIPSAGGSAGGSAGG [r7_299_JUSTAS] | 2.81 ± 0.13 kJ/mol | 0.872 ± 0.238 kJ/mol
25 | SAGGSAGGSAGGMFYIKIPNGKQFPFKSKEEFKDQLRERNGRPMKIKDIEIQPLDPNQFSAGGSAGGSAGGS [r10_62_TrROS] | 2.45 ± 1.09 kJ/mol | -0.371 ± 1.34 kJ/mol
26 | SAGGSAGGSAGSTTTRTVELPPGTSLEEVRARLEAEGYTGVVITEVERPPGPRLRVTVVGSAGGSAGGSAGG [r11_800_JUSTAS] | 1.23 ± 0.251 kJ/mol | -0.327 ± 0.92 kJ/mol
27 | SAGGPNPKTVEIPSPGTPEDVRARVEELAAELRPRGRPVTVTVTVGSTPRTLALAEVASVPPDATATVGSAG [r5_626_JUSTAS] | -3.9 ± 1.67 kJ/mol | < -4.18 kJ/mol
28 | SAGGSSLPPDVTLVEEEKVVETPDGTTIKVKTTTAVSAEGTVRRPVTETITYPEKPETIEKETEIDASAGGS [r16_563_JUSTAS] | 1.7 ± 0.628 kJ/mol | 0.509 ± 1.38 kJ/mol
29 | SAGGSAGGSAGMNIVVSSEEEAEKAIKELAKKLGKPNNLKNPKVTVIPLEPTPTGGLKKKSAGGSAGGSAGG [r17_237_JUSTAS] | 0.948 ± 0.322 kJ/mol | -1.26 ± 0.669 kJ/mol
30 | SAGVEVTSTSVDYTLDSSSPSPLRSSASPVRSAPPVEERPVELVDPSGERRLVTLKEIDPEKGGRVLSGSAG [r5_735_JUSTAS] | 0.959 ± 1.09 kJ/mol | 0.776 ± 1 kJ/mol
31 | SAGGSASSEFNTDKKPPPLPKKSKVINLNIPTPPDETEEEAKKKAEEIANKLKEEGKYGEVTVKIESAGGSA [r15_450_JUSTAS] | 3.16 ± 0.711 kJ/mol | 2.09 ± 1.72 kJ/mol
32 | SAGGSALTAKEARELVRNYAREHNPDYKVKGIEVERLPDKWVHADIEVRPPENPGQEHEWSIWIPYSAGGSA [r15_627_TrROS] | -1.75 ± 1.38 kJ/mol | -4.12 ± 1.3 kJ/mol
33 | SAGGDPALLLPVERKVTIEYTDEDGKKFTVGDVTVLPSPEILVKIPGTGETIRVPPSVVKKVEEVPESAGGS [r8_410_JUSTAS] | -1.9 ± 0.753 kJ/mol | < -4.18 kJ/mol
34 | SAGGSAGGSAGGMSVSPEGYSVSVTGSGPRGVPVPASNAAEQRAALAAQPDVSSVTVTASSAGGSAGGSAGG [r11_587_JUSTAS] | 1.51 ± 0.209 kJ/mol | -3.69 ± 0.753 kJ/mol
35 | SAGGSASPVLVELPEGVRVELPPDTMTVTIRLPNGTEVVVPLENPEPPDPAAALARARAVVAALPESAGGSA [r15_748_JUSTAS] | 3.24 ± 0.418 kJ/mol | 0.775 ± 0.46 kJ/mol
36 | SAGGSAGGSIKITLETETETYLDPEDPNRPVTKVKAVKPTIEVPEENPEKLKELAEKLGLELESAGGSAGGS [r12_249_TrMRF] | 3.03 ± 0.142 kJ/mol | 0.971 ± 0.418 kJ/mol
